B1: Ad2 pVI-c peptide cofactor (11-amino acid carboxy terminus of pVI) (peptide)
peptide: GVQSLKRRRCF

Columns and labels:
[1] = target: purified recombinant Ad2 proteinase (rEP) (human adenovirus type 2)
[2] = target: (Leu-Arg-Gly-Gly-NH)2-rhodamine
[3] = target: purified recombinant Ad2 proteinase (rEP) (human adenovirus type 2); remark: listed apart in the source

Row | Molecule | stimulation of the rate of substrate hydrolysis by rEP with pVIc peptide [1] [fold] | other results
1 | polyaspartic acid | 5 | 
2 | polyglutamic acid | 8.9 | 
3 | polylysine | < 1 | 
4 | purified recombinant Ad2 proteinase (rEP) (enzyme) |  | rate of substrate hydrolysis, fluorescence assay (pmol substrate min^-1) [2]: 25.6
5 | B1 |  | activation of rEP, rate of hydrolysis of (Leu-Arg-Gly-Gly-NH)2-rhodamine [3]: 2.76 pmol/min

Source: patent US5543264
